Patent US20240192215A1 (E AND S HEALTHCARE, published 2024)

What was measured:
Experiment in all cases: peptide microarray, anti-mouse IgG DyLight 650, MMC2 heatmap (Example 17)
Peptide_058 = target: T1, Peptide_058
T1 peptide: FFHSLSEKYSNVIFL
Experimental: (§1) 5, 1, 0.2, 0.04, 0.008 and 0.0016 μg/mL serial dilutions were incubated on a single multi-well microarray slide at 30° C. for 1 hour. The slide includes 21 individual mini-arrays (one mini-array per sample dilution).
(§2) DyLight 650 was used as a label. False-positive binding to a peptide was evaluated by performing one additional control incubation in which only a secondary antibody was applied on the same microarray slide. Before performing each step, the microarrays were washed with a washing buffer.
(§3) To visualize the obtained results and compare binding regions across individual cultures, as shown in FIGS. 21A to 21D, heatmap diagrams were calculated. In FIGS. 21A to 21D, the fluorescence intensity is expressed in a color-coded manner, white indicates no binding, and red indicates strong binding. For all evaluations, the MMC2-value of the average pixel fluorescence for each peptide was calculated.

Peptide_042 = target: T2, Peptide_042
T2 peptide: VDFSATWCGPCKMIK
Experimental: as §1, §2, §3

Peptide_080 = target: T3, Peptide_080
T3 peptide: QDVASECEVKCMPTF
Experimental: as §1, §2, §3

Peptide_037 = target: T4, Peptide_037
T4 peptide: DKLVVVDFSATWCGP
Experimental: as §1, §2, §3

Peptide_030 = target: T5, Peptide_030
T5 peptide: EALDAAGDKLVVVDF
Experimental: as §1, §2, §3

Peptide_077 = target: T6, Peptide_077
T6 peptide: DDCQDVASECEVKCM
Experimental: as §1, §2, §3

Peptide_040 = target: T7, Peptide_040
T7 peptide: VVVDFSATWCGPCKM
Experimental: as §1, §2, §3

Peptide_069 = target: T8, Peptide_069
T8 peptide: VIFLEVDVDDCQDVA
Experimental: as §1, §2, §3

Peptide_079 = target: T9, Peptide_079
T9 peptide: CQDVASECEVKCMPT
Experimental: as §1, §2, §3

Peptide_106 = target: T10, Peptide_106
T10 construct: also called FSGANKEKLEATINE
T10 peptide: FSGANKEKLEATINE
Experimental: as §1, §2, §3

Peptide_068 = target: T11, Peptide_068
T11 peptide: NVIFLEVDVDDCQDV
Experimental: as §1, §2, §3

Peptide_078 = target: T12, Peptide_078
T12 peptide: DCQDVASECEVKCMP
Experimental: as §1, §2, §3

Peptide_028 = target: T13, Peptide_028
T13 peptide: FQEALDAAGDKLVVV
Experimental: as §1, §2, §3

Peptide_060 = target: T14, Peptide_060
T14 peptide: HSLSEKYSNVIFLEV
Experimental: as §1, §2, §3

Peptide_008 = target: T15, Peptide_008
T15 peptide: HSQHHHHHHHHVKQI
Experimental: as §1, §2, §3

Peptide_010 = target: T16, Peptide_010
T16 peptide: QHHHHHHHHVKQIES
Experimental: as §1, §2, §3

Peptide_089 = target: T17, Peptide_089
T17 peptide: KCMPTFQFFKKGQKV
Experimental: as §1, §2, §3

Peptide_035 = target: T18, Peptide_035
T18 peptide: AGDKLVVVDFSATWC
Experimental: as §1, §2, §3

Peptide_009 = target: T19, Peptide_009
T19 peptide: SQHHHHHHHHVKQIE
Experimental: as §1, §2, §3

Peptide_017 = target: T20, Peptide_017
T20 peptide: HHVKQIESKTAFQEA
Experimental: as §1, §2, §3

Peptide_007 = target: T21, Peptide_007
T21 peptide: VHSQHHHHHHHHVKQ
Experimental: as §1, §2, §3

Peptide_064 = target: T22, Peptide_064
T22 peptide: EKYSNVIFLEVDVDD
Experimental: as §1, §2, §3

Peptide_039 = target: T23, Peptide_039
T23 peptide: LVVVDFSATWCGPCK
Experimental: as §1, §2, §3

Peptide_088 = target: T24, Peptide_088
T24 peptide: VKCMPTFQFFKKGQK
Experimental: as §1, §2, §3

Peptide_059 = target: T25, Peptide_059
T25 peptide: FHSLSEKYSNVIFLE
Experimental: as §1, §2, §3

Peptide_074 = target: T26, Peptide_074
T26 peptide: VDVDDCQDVASECEV
Experimental: as §1, §2, §3

Peptide_081 = target: T27, Peptide_081
T27 peptide: DVASECEVKCMPTFQ
Experimental: as §1, §2, §3

Peptide_003 = target: T28, Peptide_003
T28 peptide: TAADVHSQHHHHHHH
Experimental: as §1, §2, §3

B1: monoclonal antibody B264 (antibody, mouse IgG1, kappa, V domains shown)
VH: QVQLQQSGAELARPGASVKMSCKASGYTFTSYTMHWVKQRPGQGLEWIGYINPTSDYTNYNQKFKDKATLTADKSSSTAYMQLSSLTSEDSAVYFCASEGGFLYYFDYWGQGTTLTVSS
VL: DVLMTQTPLSLPVSLGDQASISCRSSQSIVHSNGNTYLEWYLQKPGQSPKLLIYKVSNRFSGVPDRFSGSGSGTDFTLKISRVEAEDLGVYYCFQGSHVPYTFGGGTKLEIKR
notes: also called AB264; B264 (Trx1-mIgG1)
Which results are given for B1?
binding result (Peptide_058): no binding (tested: 5 ug/mL); binding result (Peptide_042): no binding (tested: 5 ug/mL); binding result (Peptide_080): no binding (tested: 5 ug/mL); binding result (Peptide_037): no binding (tested: 5 ug/mL); binding result (Peptide_030): no binding (tested: 5 ug/mL); binding result (Peptide_077): no binding (tested: 5 ug/mL); binding result (Peptide_040): no binding (tested: 5 ug/mL); binding result (Peptide_069): no binding (tested: 5 ug/mL); binding result (Peptide_079): no binding (tested: 5 ug/mL); binding result (Peptide_106): no binding (tested: 5 ug/mL); binding result (Peptide_068): no binding (tested: 5 ug/mL); binding result (Peptide_078): no binding (tested: 5 ug/mL); binding result (Peptide_028): no binding (tested: 5 ug/mL); binding result (Peptide_060): binds; binding result (Peptide_008): no binding (tested: 5 ug/mL); binding result (Peptide_010): no binding (tested: 5 ug/mL); binding result (Peptide_089): no binding (tested: 5 ug/mL); binding result (Peptide_035): no binding (tested: 5 ug/mL); binding result (Peptide_009): no binding (tested: 5 ug/mL); binding result (Peptide_017): binds; binding result (Peptide_007): no binding (tested: 5 ug/mL); binding result (Peptide_064): no binding (tested: 5 ug/mL); binding result (Peptide_039): binds; binding result (Peptide_088): no binding (tested: 5 ug/mL); binding result (Peptide_059): no binding (tested: 5 ug/mL); binding result (Peptide_074): no binding (tested: 5 ug/mL); binding result (Peptide_081): no binding (tested: 5 ug/mL); binding result (Peptide_003): no binding (tested: 5 ug/mL)
